Source: PMC2888147 (The Biochemical journal, 2010)

Experiments:
[1] = biological target: T1, His-tagged KCNQ1 full-length C-terminus (Q1Cf, 349-676) (human, UniProt P51787 349-676); assay: SPR
T1 sequence (looked up): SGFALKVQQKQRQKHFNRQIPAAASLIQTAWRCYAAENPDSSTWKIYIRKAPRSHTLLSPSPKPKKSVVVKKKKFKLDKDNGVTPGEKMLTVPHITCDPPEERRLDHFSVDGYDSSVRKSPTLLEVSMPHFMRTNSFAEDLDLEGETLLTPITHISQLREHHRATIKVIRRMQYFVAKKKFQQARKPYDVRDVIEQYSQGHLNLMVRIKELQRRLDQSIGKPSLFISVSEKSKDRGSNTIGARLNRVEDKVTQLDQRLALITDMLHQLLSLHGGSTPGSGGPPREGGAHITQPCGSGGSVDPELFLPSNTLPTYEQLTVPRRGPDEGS

[2] = biological target: T2, His-tagged KCNQ1 C-terminal fragment Q1C1 (349-480) (human, UniProt P51787 349-480); assay: SPR
T2 sequence (looked up): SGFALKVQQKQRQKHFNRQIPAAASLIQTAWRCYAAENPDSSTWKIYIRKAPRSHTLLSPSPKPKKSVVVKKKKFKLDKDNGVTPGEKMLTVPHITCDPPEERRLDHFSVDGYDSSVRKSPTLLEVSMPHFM

Kd [1]: 3.2 ± 0.7 µM
Kd [2]: 4.6 ± 1.4 µM
B1: His-tagged KCNE1 C-terminus (E1C) (domain or fragment)
chain: not shown
